Assay [1] concerns the target 5-FAM-labeled phospho-T427 peptide of the Rad9 SCD (S. cerevisiae). As to the kind of experiment: fluorescence polarisation. For orientation: Polarisation of emitted light reports the rotation of a fluorescent probe.
The target in assay [2] is GST-BRCT (Rad9 tandem BRCT domain fused to GST), wild type (S. cerevisiae). As to the kind of experiment: pull-down.

pKd: −log10 of the molar value. A value given as a limit tells only on which side of the number the result lay.

“GST-BRCT (Rad9 tandem BRCT domain fused to GST), wild type (domain or fragment)”: the pKd in assay [1] is 4.11.

The substance “PIKK-phosphorylated N-SCD (N-terminal fragment of Rad9-TEV-HA from MMS-treated cells) (from UniProt P14737 1-990) (domain or fragment)” registered a yield of N-SCD in the pull-down (percent of the starting material) in assay [2] greater than 10%.

One may read the pKd as −log10 of the Kd, conventionally taken in molar units. Low readings indicate a high Kd, high ones a low Kd.

The values above are taken from publication PMC2995296.
